Measured values from the supplement of paper PMC5998384.

Tests used:
[1] = test system: HeLa Kyoto; assay: solubility in G1/S (NP-40 vs SDS abundance) (log2 ratio); higher = more soluble; settings: cell cycle stage: G1/S
[2] = test system: HeLa Kyoto; assay: melting temperature (median over replicates), in situ; higher = more thermally stable
[3] = test system: HeLa Kyoto; assay: solubility change mitosis vs G1/S (difference of NP-40 vs SDS log2 ratios) (log2 ratio difference); higher = more soluble in mitosis
[4] = test system: HeLa Kyoto; assay: thermal stability score vs G1/S (z-score of summed log2 fold changes over temperatures); higher = more thermally stable than in G1/S
[5] = cell cycle stage: early G1 (4.5 h after nocodazole release)
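Throughout, for melting temperature (median over replicates), in situ: HeLa Kyoto cells synchronized by double thymidine or nocodazole block, proteins quantified by TMT10plex mass spectrometry, three independent biological replicates.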
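Throughout, for solubility change mitosis vs G1/S (difference of NP-40 vs SDS log2 ratios): synchronized HeLa Kyoto cells (double thymidine block for G1/S, nocodazole release for mitosis), protein amounts in NP-40 versus SDS lysates quantified by mass spectrometry, three biological replicates.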
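Throughout, for solubility in G1/S (NP-40 vs SDS abundance): HeLa Kyoto cells arrested at G1/S by double thymidine block, proteins quantified by TMT10plex mass spectrometry in mild NP-40 versus SDS extracts, three biological replicates.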
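Throughout, for thermal stability score vs G1/S (z-score of summed log2 fold changes over temperatures): synchronized HeLa Kyoto cells, proteins quantified by TMT10plex mass spectrometry, three biological replicates, mitosis taken 0.5 h after nocodazole release, G1/S directly after double thymidine block.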

Chain of CCBL2 (chain, as listed by the source): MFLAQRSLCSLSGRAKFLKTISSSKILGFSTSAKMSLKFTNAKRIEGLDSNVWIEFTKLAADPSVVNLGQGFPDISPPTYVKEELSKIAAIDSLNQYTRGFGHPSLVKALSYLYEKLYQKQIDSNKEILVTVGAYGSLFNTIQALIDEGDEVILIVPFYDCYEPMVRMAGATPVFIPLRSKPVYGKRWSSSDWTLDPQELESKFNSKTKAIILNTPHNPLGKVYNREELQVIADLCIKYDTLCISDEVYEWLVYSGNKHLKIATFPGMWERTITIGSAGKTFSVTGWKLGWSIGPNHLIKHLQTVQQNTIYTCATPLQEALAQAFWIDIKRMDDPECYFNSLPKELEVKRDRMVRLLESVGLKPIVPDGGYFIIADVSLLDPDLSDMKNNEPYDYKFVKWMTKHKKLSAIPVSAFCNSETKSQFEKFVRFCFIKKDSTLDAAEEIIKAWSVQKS

Substance	solubility in G1/S (log2) [1]	melting temperature ([2]; cell cycle stage: G1/S) [°C]	melting temperature ([2]; cell cycle stage: mitosis) [°C]	solubility change mitosis (log2) [3]	thermal stability score [4, 5]	thermal stability score ([4]; cell cycle stage: mitosis)
MSVEAYGPSSQTLTFLDTEEAELLGADTQGSEFEFTDFTLPSQTQTPPGGPGGPGGGGAGGPGGAGAGAAAGQLDAQVGPEGILQNGAVDDSVAKTSQLLAELNFEEDEEDTYYTKDLPIHACSYCGIHDPACVVYCNTSKKWFCNGRGNTSGSHIVNHLVRAKCKEVTLHKDGPLGETVLECYNCGCRNVFLLGFIPAKADSVVVLLCRQPCASQSSLKDINWDSSQWQPLIQDRCFLSWLVKIPSEQEQLRARQITAQQINKLEELWKENPSATLEDLEKPGVDEEPQHVLLRYEDAYQYQNIFGPLVKLEADYDKKLKESQTQDNITVRWDLGLNKKRIAYFTLPKTDSGNEDLVIIWLRDMRLMQGDEICLRYKGDLAPLWKGIGHVIKVPDNYGDEIAIELRSSVGAPVEVTHNFQVDFVWKSTSFDRMQSALKTFAVDETSVSGYIYHKLLGHEVEDVIIKCQLPKRFTAQGLPDLNHSQVYAVKTVLQRPLSLIQGPPGTGKTVTSATIVYHLARQGNGPVLVCAPSNIAVDQLTEKIHQTGLKVVRLCAKSREAIDSPVSFLALHNQIRNMDSMPELQKLQQLKDETGELSSADEKRYRALKRTAERELLMNADVICCTCVGAGDPRLAKMQFRSILIDESTQATEPECMVPVVLGAKQLILVGDHCQLGPVVMCKKAAKAGLSQSLFERLVVLGIRPIRLQVQYRMHPALSAFPSNIFYEGSLQNGVTAADRVKKGFDFQWPQPDKPMFFYVTQGQEEIASSGTSYLNRTEAANVEKITTKLLKAGAKPDQIGIITPYEGQRSYLVQYMQFSGSLHTKLYQEVEIASVDAFQGREKDFIILSCVRANEHQGIGFLNDPRRLNVALTRARYGVIIVGNPKALSKQPLWNHLLNYYKEQKVLVEGPLNNLRESLMQFSKPRKLVNTINPGARFMTTAMYDAREAIIPGSVYDRSSQGRPSSMYFQTHDQIGMISAGPSHVAAMNIPIPFNLVMPPMPPPGYFGQANGPAAGRGTPKGKTGRGGRQKNRFGLPGPSQTNLPNSQASQDVASQPFSQGALTQGYISMSQPSQMSQPGLSQPELSQDSYLGDEFKSQIDVALSQDSTYQGERAYQHGGVTGLSQY [UPF1]	0.0497	54.3	52.3	-0.0177	-3.14	-8.04
MSDSKCDSQFYSVQVADSTFTVLKRYQQLKPIGSGAQGIVCAAFDTVLGINVAVKKLSRPFQNQTHAKRAYRELVLLKCVNHKNIISLLNVFTPQKTLEEFQDVYLVMELMDANLCQVIHMELDHERMSYLLYQMLCGIKHLHSAGIIHRDLKPSNIVVKSDCTLKILDFGLARTACTNFMMTPYVVTRYYRAPEVILGMGYKENVDIWSVGCIMGELVKGCVIFQGTDHIDQWNKVIEQLGTPSAEFMKKLQPTVRNYVENRPKYPGIKFEELFPDWIFPSESERDKIKTSQARDLLSKMLVIDPDKRISVDEALRHPYITVWYDPAEAEAPPPQIYDAQLEEREHAIEEWKELIYKEVMDWEERSKNGVVKDQPSDAAVSSNATPSQSSSINDISSMSTEQTLASDTDSSLDASTGPLEGCR [MAPK9]	-0.0645	50.9	–	-0.147	-0.633	-0.772
MSLEQRSLHCKPEEALEAQQEALGLVCVQAATSSSSPLVLGTLEEVPTAGSTDPPQSPQGASAFPTTINFTRQRQPSEGSSSREEEGPSTSCILESLFRAVITKKVADLVGFLLLKYRAREPVTKAEMLESVIKNYKHCFPEIFGKASESLQLVFGIDVKEADPTGHSYVLVTCLGLSYDGLLGDNQIMPKTGFLIIVLVMIAMEGGHAPEEEIWEELSVMEVYDGREHSAYGEPRKLLTQDLVQEKYLEYRQVPDSDPARYEFLWGPRALAETSYVKVLEYVIKVSARVRFFFPSLREAALREEEEGV [MAGEA1]	-0.178	48.4	49.5	-0.0297	0.313	2.38
MASNMDREMILADFQACTGIENIDEAITLLEQNNWDLVAAINGVIPQENGILQSEYGGETIPGPAFNPASHPASAPTSSSSSAFRPVMPSRQIVERQPRMLDFRVEYRDRNVDVVLEDTCTVGEIKQILENELQIPVSKMLLKGWKTGDVEDSTVLKSLHLPKNNSLYVLTPDLPPPSSSSHAGALQESLNQNFMLIITHREVQREYNLNFSGSSTIQEVKRNVYDLTSIPVRHQLWEGWPTSATDDSMCLAESGLSYPCHRLTVGRRSSPAQTREQSEEQITDVHMVSDSDGDDFEDATEFGVDDGEVFGMASSALRKSPMMPENAENEGDALLQFTAEFSSRYGDCHPVFFIGSLEAAFQEAFYVKARDRKLLAIYLHHDESVLTNVFCSQMLCAESIVSYLSQNFITWAWDLTKDSNRARFLTMCNRHFGSVVAQTIRTQKTDQFPLFLIIMGKRSSNEVLNVIQGNTTVDELMMRLMAAMEIFTAQQQEDIKDEDEREARENVKREQDEAYRLSLEADRAKREAHEREMAEQFRLEQIRKEQEEEREAIRLSLEQALPPEPKEENAEPVSKLRIRTPSGEFLERRFLASNKLQIVFDFVASKGFPWDEYKLLSTFPRRDVTQLDPNKSLLEVKLFPQETLFLEAKE [FAF1]	0.0926	53.6	53.5	-0.147	0.291	1.77
CCBL2	0.16	57.2	57.5	-0.21	-0.947	-1.75
MKDSENKGASSPDMEPSYGGGLFDMVKGGAGRLFSNLKDNLKDTLKDTSSRVIQSVTSYTKGDLDFTYVTSRIIVMSFPLDNVDIGFRNQVDDIRSFLDSRHLDHYTVYNLSPKSYRTAKFHSRVSECSWPIRQAPSLHNLFAVCRNMYNWLLQNPKNVCVVHCLDGRAASSILVGAMFIFCNLYSTPGPAIRLLYAKRPGIGLSPSHRRYLGYMCDLLADKPYRPHFKPLTIKSITVSPIPFFNKQRNGCRPYCDVLIGETKIYSTCTDFERMKEYRVQDGKIFIPLNITVQGDVVVSMYHLRSTIGSRLQAKVTNTQIFQLQFHTGFIPLDTTVLKFTKPELDACDVPEKYPQLFQVTLDVELQPHDKVIDLTPPWEHYCTKDVNPSILFSSHQEHQDTLALGGQAPIDIPPDNPRHYGQSGFFASLCWQDQKSEKSFCEEDHAALVNQESEQSDDELLTLSSPHGNANGDKPHGVKKPSKKQQEPAAPPPPEDVDLLGLEGSAMSNSFSPPAAPPTNSELLSDLFGGGGAAGPTQAGQSGVEDVFHPSGPASTQSTPRRSATSTSASPTLRVGEGATFDPFGAPSKPSGQDLLGSFLNTSSASSDPFLQPTRSPSPTVHASSTPAVNIQPDVSGGWDWHAKPGGFGMGSKSAATSPTGSSHGTPTHQSKPQTLDPFADLGTLGSSSFASKPTTPTGLGGGFPPLSSPQKASPQPMGGGWQQGGAYNWQQPQPKPQPSMPHSSPQNRPNYNVSFSAMPGGQNERGKGSSNLEGKQKAADFEDLLSGQGFNAHKDKKGPRTIAEMRKEEMAKEMDPEKLKILEWIEGKERNIRALLSTMHTVLWAGETKWKPVGMADLVTPEQVKKVYRKAVLVVHPDKATGQPYEQYAKMIFMELNDAWSEFENQGQKPLY [DNAJC6]	0.0466	51.6	51.7	-0.112	-0.0779	-0.888
MAAAKVALTKRADPAELRTIFLKYASIEKNGEFFMSPNDFVTRYLNIFGESQPNPKTVELLSGVVDQTKDGLISFQEFVAFESVLCAPDALFMVAFQLFDKAGKGEVTFEDVKQVFGQTTIHQHIPFNWDSEFVQLHFGKERKRHLTYAEFTQFLLEIQLEHAKQAFVQRDNARTGRVTAIDFRDIMVTIRPHVLTPFVEECLVAAAGGTTSHQVSFSYFNGFNSLLNNMELIRKIYSTLAGTRKDVEVTKEEFVLAAQKFGQVTPMEVDILFQLADLYEPRGRMTLADIERIAPLEEGTLPFNLAEAQRQKASGDSARPVLLQVAESAYRFGLGSVAGAVGATAVYPIDLVKTRMQNQRSTGSFVGELMYKNSFDCFKKVLRYEGFFGLYRGLLPQLLGVAPEKAIKLTVNDFVRDKFMHKDGSVPLAAEILAGGCAGGSQVIFTNPLEIVKIRLQVAGEITTGPRVSALSVVRDLGFFGIYKGAKACFLRDIPFSAIYFPCYAHVKASFANEDGQVSPGSLLLAGAIAGMPAASLVTPADVIKTRLQVAARAGQTTYSGVIDCFRKILREEGPKALWKGAGARVFRSSPQFGVTLLTYELLQRWFYIDFGGVKPMGSEPVPKSRINLPAPNPDHVGGYKLAVATFAGIENKFGLYLPLFKPSVSTSKAIGGGP [SLC25A13]	0.0358	55.3	55.3	-0.142	-1.62	-1.29
